# T1: FLAG-tagged Lgl1 (Lethal giant larvae 1), Q80Y17
# T1 chain: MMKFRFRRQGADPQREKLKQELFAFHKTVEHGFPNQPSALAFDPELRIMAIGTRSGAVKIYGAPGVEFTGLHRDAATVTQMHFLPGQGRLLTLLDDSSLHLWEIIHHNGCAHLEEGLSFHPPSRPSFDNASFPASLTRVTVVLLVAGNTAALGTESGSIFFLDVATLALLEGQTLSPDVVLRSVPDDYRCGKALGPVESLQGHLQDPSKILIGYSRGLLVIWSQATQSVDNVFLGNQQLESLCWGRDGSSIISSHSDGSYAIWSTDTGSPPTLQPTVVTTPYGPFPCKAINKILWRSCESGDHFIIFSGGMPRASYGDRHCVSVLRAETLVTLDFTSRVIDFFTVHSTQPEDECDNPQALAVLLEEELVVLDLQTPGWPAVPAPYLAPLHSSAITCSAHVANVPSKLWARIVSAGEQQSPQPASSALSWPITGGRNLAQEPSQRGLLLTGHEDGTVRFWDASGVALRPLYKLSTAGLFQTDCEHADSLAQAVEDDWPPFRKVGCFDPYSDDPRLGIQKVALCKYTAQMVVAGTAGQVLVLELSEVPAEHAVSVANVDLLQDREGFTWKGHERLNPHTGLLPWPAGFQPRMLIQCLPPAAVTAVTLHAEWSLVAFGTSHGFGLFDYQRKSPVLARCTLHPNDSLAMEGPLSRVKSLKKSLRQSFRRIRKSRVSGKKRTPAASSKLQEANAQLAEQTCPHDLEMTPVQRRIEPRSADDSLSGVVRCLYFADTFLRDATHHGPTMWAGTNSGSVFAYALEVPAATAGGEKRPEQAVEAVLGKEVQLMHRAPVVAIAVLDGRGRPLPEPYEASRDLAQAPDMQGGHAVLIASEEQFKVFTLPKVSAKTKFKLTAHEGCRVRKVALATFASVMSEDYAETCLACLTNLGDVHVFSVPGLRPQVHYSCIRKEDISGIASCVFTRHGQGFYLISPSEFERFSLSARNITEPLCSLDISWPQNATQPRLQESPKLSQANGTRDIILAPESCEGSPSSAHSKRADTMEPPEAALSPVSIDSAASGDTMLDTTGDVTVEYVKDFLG
# Target: T1, FLAG-tagged Lgl1 (Lethal giant larvae …)
# Test: co-immunoprecipitation (FLAG IP, western blot with HA and FLAG antibodies, quantified)
# Conditions: chain shown with the change; HEK293T cell lysates; n = 3; parent: est. 1.0; read off a plot
binder,measurement,value
"HA-PKCζ-wt, Q05513 K225R; K284R; K378R (protein) MPSRTGPKMEGSGGRVRLKAHYGGDIFITSVDAATTFEELCEEVRDMCRLHQQHPLTLKWVDSEGDPCTVSSQMELEEAFRLARQCRDEGLIIHVFPSTPEQPGLPCPGEDKSIYRRGARRWRKLYRANGHLFQAKRFNRRAYCGQCSERIWGLARQGYRCINCKLLVHKRCHGLVPLTCRKHMDSVMPSQEPPVDDKNEDADLPSEETDGIAYISSSRKHDSIRDDSEDLKPVIDGMDGIKISQGLGLQDFDLIRVIGRGSYAKVLLVRLKKNDQIYAMKVVRKELVHDDEDIDWVQTEKHVFEQASSNPFLVGLHSCFQTTSRLFLVIEYVNGGDLMFHMQRQRKLPEEHARFYAAEICIALNFLHERGIIYRDLRLDNVLLDADGHIKLTDYGMCKEGLGPGDTTSTFCGTPNYIAPEILRGEEYGFSVDWWALGVLMFEMMAGRSPFDIITDNPDMNTEDYLFQVILEKPIRIPRFLSVKASHVLKGFLNKDPKERLGCRPQTGFSDIKSHAFFRSIDWDLLEKKQALPPFQPQITDDYGLDNFDTQFTSEPVQLTPDDEDAIKRIDQSEFEGFEYINPLLLSTEESV",ratio to parent,2.4

# From PMC5040961
